Laboratory results reported in US20090053213A1 (MorphoSys, published 2009).
Where a chain is given by its changes, count along the chain named.

T1: rat GM-CSF (rat, UniProt P48750 18-144)
T1 construct: Bought recombinant protein; also called rat-GM-CSF (Peprotech); rat recombinant GM-CSF
T1 sequence (looked up): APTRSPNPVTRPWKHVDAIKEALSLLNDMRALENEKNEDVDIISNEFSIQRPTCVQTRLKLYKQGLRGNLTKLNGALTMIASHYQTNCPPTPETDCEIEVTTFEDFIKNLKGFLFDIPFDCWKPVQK

T2: human M-CSF (human, UniProt P09603 33-190, limits assumed)
T2 construct: Bought recombinant protein
T2 sequence (looked up): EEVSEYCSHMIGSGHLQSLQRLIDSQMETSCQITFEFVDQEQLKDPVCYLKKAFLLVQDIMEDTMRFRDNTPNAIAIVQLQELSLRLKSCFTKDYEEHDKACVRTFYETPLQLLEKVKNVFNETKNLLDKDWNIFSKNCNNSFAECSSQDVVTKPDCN

T3: human IL-4 (human, UniProt P05112 25-153)
T3 construct: Bought recombinant protein
T3 sequence (looked up): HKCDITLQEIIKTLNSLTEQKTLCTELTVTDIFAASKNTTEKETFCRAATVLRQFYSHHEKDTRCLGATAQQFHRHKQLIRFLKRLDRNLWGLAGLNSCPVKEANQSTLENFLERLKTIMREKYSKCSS

T4: mouse GM-CSF (mouse, UniProt P01587 18-141)
T4 construct: Bought recombinant protein
T4 sequence (looked up): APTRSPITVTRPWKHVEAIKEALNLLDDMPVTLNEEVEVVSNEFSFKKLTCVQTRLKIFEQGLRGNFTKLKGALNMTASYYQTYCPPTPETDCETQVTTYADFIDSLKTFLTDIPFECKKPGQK

T5: human IL-3 (human, UniProt P08700 20-152)
T5 construct: Bought recombinant protein
T5 sequence (looked up): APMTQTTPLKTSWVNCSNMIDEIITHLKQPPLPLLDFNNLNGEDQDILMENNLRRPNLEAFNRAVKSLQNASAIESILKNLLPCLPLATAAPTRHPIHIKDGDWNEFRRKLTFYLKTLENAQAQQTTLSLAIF

T6: human IL-5 (human, UniProt P05113 20-134)
T6 construct: Bought recombinant protein
T6 sequence (looked up): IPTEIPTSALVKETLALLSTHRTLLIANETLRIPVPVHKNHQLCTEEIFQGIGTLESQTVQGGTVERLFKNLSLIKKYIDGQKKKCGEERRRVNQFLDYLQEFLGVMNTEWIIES

B1: MOR03684 Fab (Fab, V domains shown)
VH: QVQLVESGGGLVQPGGSLRLSCAASGFTFSSHWMSWVRQAPGKGLEWVSNGIFSDGSATYYADSVKGRFTISRDNSKNTLYLQMNSLRAEDTAVYYCARFQGYGGGFDYWGQGTLVTVSS
VL: DIELTQPPSVSVAPGQTARISCSGDNLPGKYVHWYQQKPGQAPVLVIYYDSNRPSGIPERFSGSNSGNTATLTISGTQAEDEADYYCQSRTQTTIVFGGGTKLTVLG
notes: carries two C-terminal tags (FLAG and 6xHis); also called antibody no
B2: MOR03682 Fab (Fab, V domains shown)
VH: QVQLVQSGAEVKKPGSSVKVSCKASGGTFNSFLISWVRQAPGQGLEWMGGIIPIFGTANYAQKFQGRVTITADESTSTAYMELSSLRSEDTAVYYCARKFISDSWGQGTLVTVSS
VL: DIQMTQSPSSLSASVGDRVTITCRASQTINNYLNWYQQKPGKAPKLLIYTASNLQSGVPSRFSGSGSGTDFTLTISSLQPEDFAVYYCQQYSGSPMTFGQGTKVEIKR
notes: Parental HuCAL GOLD Fab with C-terminal FLAG and 6xHis tags
B3: MOR04357 Fab (Fab, V domains shown)
VH: QVQLVESGGGLVQPGGSLRLSCAASGFTFSSYWMNWVRQAPGKGLEWVSGIENKYAGGATYYAASVKGRFTISRDNSKNTLYLQMNSLRAEDTAVYYCARGFGTDFWGQGTLVTVSS
VL: DIELTQPPSVSVAPGQTARISCSGDSIGKKYAYWYQQKPGQAPVLVIYKKRPSGIPERFSGSNSGNTATLTISGTQAEDEADYYCSAWGDKGMVFGGGTKLTVLG
notes: X-cloned Fab (VH of MOR04252 x VL of MOR04302) with FLAG and 6xHis tags; also called Fab MOR04357
B4: MOR03929 Fab (Fab, V domains shown)
VH: QVQLVESGGGLVQPGGSLRLSCAASGFTFSSYWMNWVRQAPGKGLEWVSGISYSGSETYYADSVKGRFTISRDNSKNTLYLQMNSLRAEDTAVYYCARGFGTDFWGQGTLVTVSS
VL: B3 VL with A87S, G89D, D90S, K91T, M93L
notes: as for B2
B5: MOR04357 IgG1 (antibody, V domains shown)
VH: B3 VH
VL: B3 VL
notes: expressed in HKB11 cells; also called IgG1 MOR04357

Experiments:
human GM-CSF [1] = target: T7, human GM-CSF (human, UniProt P04141 18-144); assay: SPR (Biacore), Fab over immobilized recombinant human GM-CSF (Peprotech), F1 chip; affinity estimated from off-rates
T7 construct: mature; the preparation is named under assay or readout; also called hGM-CSF; recombinant human GM-CSF
T7 sequence (P04141 18-144): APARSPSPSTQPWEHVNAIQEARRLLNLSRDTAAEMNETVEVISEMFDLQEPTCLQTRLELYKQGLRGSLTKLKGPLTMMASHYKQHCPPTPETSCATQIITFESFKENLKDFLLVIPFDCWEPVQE
Protocol: A respective amount of HSA was immobilized on the reference flow cell. […] Fab was applied in concentration series of 6.3-200 nM at a flow rate of 20 μl/min.

human GM-CSF [2] = target: T7, human GM-CSF; assay: cell-based or functional assay
rat GM-CSF [3] = target: T1, rat GM-CSF; assay: SPR (Biacore 3000), Fab captured on anti-F(ab)2, cytokine as analyte
Protocol: (§1) This was performed in a capture set-up by surface plasmon resonance (Biacore 3000, Uppsala, Sweden).
(§2) CM5 chips (Biacore, Sweden) were coated with 5000-6000 RU anti-F(ab)₂ (Dianova, Affinipure F(ab)₂ Fragment Goat Anti-Human IgG, F(ab)₂ Fragment specific); 80 μg/ml 10 mM acetate buffer, pH4 on all 4 flow cells, using standard EDC-NHS amine coupling chemistry. […] After capturing of the specific Fab, buffer was injected, to determine the dissociation of anti-Fab/Fab interaction. In a following cycle, the analyte growth factor was injected (20 μl, flow rate 20 μl/min) at a concentration range between 15 and 2000 nM for the determination of the specific signal. Afterwards the achieved buffer sensogram was manually subtracted from the specific one. After each cycle, the flow cells were regenerated with 100 mM HCl (5 μl).

human M-CSF = target: T2, human M-CSF; assay: as above
Protocol: as §1, §2

human IL-4 = target: T3, human IL-4; assay: as above
Protocol: as §1, §2

mouse GM-CSF = target: T4, mouse GM-CSF; assay: as above
Protocol: as §1, §2

human IL-3 = target: T5, human IL-3; assay: as above
Protocol: as §1, §2

human IL-13 = target: T8, human IL-13 (human, UniProt P35225 35-146); assay: as above
T8 construct: Bought recombinant protein
T8 sequence (P35225 35-146 limits assumed): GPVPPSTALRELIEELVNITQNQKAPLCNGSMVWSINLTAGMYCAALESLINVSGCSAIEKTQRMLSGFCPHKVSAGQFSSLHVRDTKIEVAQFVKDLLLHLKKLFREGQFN
Protocol: as §1, §2

human IL-5 = target: T6, human IL-5; assay: as above
Protocol: as §1, §2

human GM-CSF [4] = target: T7, human GM-CSF; assay: solution equilibrium titration (SET, ECL/BioVeris), Fab with human GM-CSF (Leucomax) in solution
human GM-CSF [5] = target: T7, human GM-CSF; assay: cell-based or functional assay; remark: listed apart in the source
human GM-CSF [6] = target: T7, human GM-CSF; assay: FACS receptor inhibition assay: antibody pre-incubated with 0.5 µg/ml biotinylated GM-CSF, binding to GM-CSF receptor alpha on CHO-GMRa#11 cells
Protocol: (§3) All stainings were performed in round bottom 96-well culture plates (Nalge Nunc) with 1-5×10⁵ cells per well. […] Cells were then washed once with 150 μl FACS buffer/well and taken up in 100 μl phycoerythrin-labeled streptavidin (BD Biosciences Pharmingen) which has been diluted 1:400 in FACS buffer. […] IC₅₀ values were determined from the dose response curves obtained using GraphPad Prism v3.03 software applying a non-linear regression curve fit.
(§4) IC₅₀ values were determined from the dose response curves obtained using GraphPad Prism v3.03 software applying a non-linear regression curve fit.

human GM-CSF [7] = target: T7, human GM-CSF; assay: FACS receptor inhibition assay: inhibition of binding of 0.5 µg/ml biotinylated GM-CSF to GM-CSF receptor alpha on CHO-GMRa#11 cells
Protocol: as §3, §4

human GM-CSF [8] = target: T7, human GM-CSF; assay: cell-based or functional assay; remark: listed apart in the source
rat GM-CSF [9] = target: T1, rat GM-CSF; assay: solution equilibrium titration (SET), Fab with rat GM-CSF (Peprotech) as analyte in solution
rat GM-CSF [10] = target: T1, rat GM-CSF; assay: SPR (Biacore 3000), Fab captured on anti-F(ab)2, rat GM-CSF as analyte
Protocol: as §1, §2

[11] = target: macaca mulatta (rhesus) GM-CSF (Macaca mulatta (rhesus)); assay: cell-based or functional assay
rat GM-CSF [12] = target: T1, rat GM-CSF; assay: solution equilibrium titration (SET), IgG1 with rat GM-CSF (Peprotech) as analyte in solution

Binder | Kd (human GM-CSF [1]) [nM] | inhibition of TF1 cell proliferation at 2 µM Fab, human GM-CSF (Leucomax) 0.25 ng/ml (human GM-CSF [2]) [%] | binding result (rat GM-CSF [3]) | binding result (human M-CSF) | binding result (human IL-4) | binding result (mouse GM-CSF) | binding result (human IL-3) | binding result (human IL-13) | binding result (human IL-5) | Kd (human GM-CSF [4]) [nM] | IC50 (pM) in TF-1 proliferation assay, human GM-CSF 0.25 ng/ml (human GM-CSF [5]) [pM] | IC50 (human GM-CSF [6]) [nM] | % inhibition at 5 µg/ml antibody (human GM-CSF [7]) [%] | IC50 (pM) in TF-1 proliferation assay, human GM-CSF (human GM-CSF [8]) [pM] | Kd (rat GM-CSF [9]) [nM] | binding result (rat GM-CSF [10]) | IC50 (pM) in TF-1 proliferation assay, macaca GM-CSF (HEK293) [11] [pM] | Kd (rat GM-CSF [12]) [nM]
B1 | 6.42 | > 50 | no binding (tested: analyte 15 to 2000 nM) | no binding (tested: analyte 15 to 2000 nM) | no binding (tested: analyte 15 to 2000 nM) | no binding (tested: analyte 15 to 2000 nM) | no binding (tested: analyte 15 to 2000 nM) | no binding (tested: analyte 15 to 2000 nM) | no binding (tested: analyte 15 to 2000 nM) | 16 | > 200000 | > 400 | ~25 | – | – | – | – | –
B2 | – | > 50 | no binding (tested: analyte 15 to 2000 nM) | no binding (tested: analyte 15 to 2000 nM) | no binding (tested: analyte 15 to 2000 nM) | no binding (tested: analyte 15 to 2000 nM) | no binding (tested: analyte 15 to 2000 nM) | no binding (tested: analyte 15 to 2000 nM) | no binding (tested: analyte 15 to 2000 nM) | 11.4 | – | – | – | > 200000 | – | – | – | –
B3 | – | – | – | – | – | – | – | – | – | – | – | – | – | – | 1 | – | – | –
B4 | 4.26 | > 50 | – | – | – | – | – | – | – | 2 | > 200000 | 35 | ~60 | – | – | binds | – | –
B5 | – | – | – | – | – | – | – | – | – | – | – | – | – | – | – | – | 15 | 0.13
